In publication PMC10786891, “Massively parallel profiling of RNA-targeting CRISPR-Cas13d”:

The binders below were run against T1, EsCas13d, nuclease-dead (Eubacterium siraeum, UniProt B0MS50, R295A;H300A;R849A;H854A) (assay: crRNA (strand 1, pre-loaded); Mg2+; 40 mM Tris-HCl pH 7.5, 150 mM NaCl, 6 mM MgCl2, 1 mM DTT, 0.1% Tween-20, 0.2 mg/ml BSA; 25 C; 10 min per concentration, then washed). Details: tags: His6-TwinStrep-SUMO cleaved; N-terminal SNAP kept (SNAP-Surface 488); label: 3' end held by stalled T7 RNA polymerase.
T1 sequence: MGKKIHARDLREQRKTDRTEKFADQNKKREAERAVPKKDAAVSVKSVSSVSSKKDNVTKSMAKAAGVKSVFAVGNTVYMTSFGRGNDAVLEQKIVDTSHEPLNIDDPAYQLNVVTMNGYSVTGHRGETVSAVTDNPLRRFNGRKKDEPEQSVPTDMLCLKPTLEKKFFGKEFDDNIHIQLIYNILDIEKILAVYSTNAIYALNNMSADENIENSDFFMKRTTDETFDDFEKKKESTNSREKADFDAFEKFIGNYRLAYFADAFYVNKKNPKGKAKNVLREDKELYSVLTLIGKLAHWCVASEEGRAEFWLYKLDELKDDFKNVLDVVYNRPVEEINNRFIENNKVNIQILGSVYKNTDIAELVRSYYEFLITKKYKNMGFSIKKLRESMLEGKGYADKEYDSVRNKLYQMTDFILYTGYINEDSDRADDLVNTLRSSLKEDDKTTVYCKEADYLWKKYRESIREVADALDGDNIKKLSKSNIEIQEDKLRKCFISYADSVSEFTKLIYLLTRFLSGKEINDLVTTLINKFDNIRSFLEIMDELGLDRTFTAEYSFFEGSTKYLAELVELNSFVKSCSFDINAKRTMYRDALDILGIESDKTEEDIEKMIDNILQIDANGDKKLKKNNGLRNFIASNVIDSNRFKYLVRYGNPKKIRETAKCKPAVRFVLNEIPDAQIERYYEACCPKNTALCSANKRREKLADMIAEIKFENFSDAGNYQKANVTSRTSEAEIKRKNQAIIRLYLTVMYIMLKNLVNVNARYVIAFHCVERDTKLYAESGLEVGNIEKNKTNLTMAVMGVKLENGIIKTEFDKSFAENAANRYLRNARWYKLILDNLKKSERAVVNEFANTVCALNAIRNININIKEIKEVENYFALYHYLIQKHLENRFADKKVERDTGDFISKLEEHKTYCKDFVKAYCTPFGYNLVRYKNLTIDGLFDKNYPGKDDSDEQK

Binder | Kd
target 2 MT 5'PFS UAG 3'PFS ACA (mixed) RNA 1: CACCCGUGCAAAAUUGCAGGGGUCUAAAACCUUCUCCAAAUUGUUUCAUCCU RNA 2: GGGAAUGGAUCCACAUCUACGAAUUCUAGAGGAUGAAACAAUUUGGAGAAGACAAGAUCGGAAGAGCACACGU | 3 ± 0.5 nM
target 2 MT 5'PFS UAG 3'PFS ACC (mixed) RNA 1: CACCCGUGCAAAAUUGCAGGGGUCUAAAACCUUCUCCAAAUUGUUUCAUCCU RNA 2: GGGAAUGGAUCCACAUCUACGAAUUCUAGAGGAUGAAACAAUUUGGAGAAGACCAGAUCGGAAGAGCACACGU | 7.3 ± 2.1 nM
target 2 MT 5'PFS UAG 3'PFS ACG (mixed) RNA 1: CACCCGUGCAAAAUUGCAGGGGUCUAAAACCUUCUCCAAAUUGUUUCAUCCU RNA 2: GGGAAUGGAUCCACAUCUACGAAUUCUAGAGGAUGAAACAAUUUGGAGAAGACGAGAUCGGAAGAGCACACGU | 3.12 ± 0.29 nM
target 2 MT 5'PFS GAG 3'PFS UUU (mixed) RNA 1: CACCCGUGCAAAAUUGCAGGGGUCUAAAACCUUCUCCAAAUUGUUUCAUCCU RNA 2: GGGAAUGGAUCCACAUCUACGAAUUCGAGAGGAUGAAACAAUUUGGAGAAGUUUAGAUCGGAAGAGCACACGU | 18 ± 2.2 nM
target 2 MT 5'PFS GUG 3'PFS UUU (mixed) RNA 1: CACCCGUGCAAAAUUGCAGGGGUCUAAAACCUUCUCCAAAUUGUUUCAUCCU RNA 2: GGGAAUGGAUCCACAUCUACGAAUUCGUGAGGAUGAAACAAUUUGGAGAAGUUUAGAUCGGAAGAGCACACGU | 61 ± 13 nM
target 2 MT 5'PFS GAA 3'PFS UCC (mixed) RNA 1: CACCCGUGCAAAAUUGCAGGGGUCUAAAACCUUCUCCAAAUUGUUUCAUCCU RNA 2: GGGAAUGGAUCCACAUCUACGAAUUCGAAAGGAUGAAACAAUUUGGAGAAGUCCAGAUCGGAAGAGCACACGU | 32 ± 6 nM
target 2 MT 5'PFS UUG 3'PFS UGC (mixed) RNA 1: CACCCGUGCAAAAUUGCAGGGGUCUAAAACCUUCUCCAAAUUGUUUCAUCCU RNA 2: GGGAAUGGAUCCACAUCUACGAAUUCUUGAGGAUGAAACAAUUUGGAGAAGUGCAGAUCGGAAGAGCACACGU | 14.1 ± 2.2 nM
target 2 MT 5'PFS GAA 3'PFS UCG (mixed) RNA 1: CACCCGUGCAAAAUUGCAGGGGUCUAAAACCUUCUCCAAAUUGUUUCAUCCU RNA 2: GGGAAUGGAUCCACAUCUACGAAUUCGAAAGGAUGAAACAAUUUGGAGAAGUCGAGAUCGGAAGAGCACACGU | 13.1 ± 1.6 nM
target 2 MT 5'PFS GUA 3'PFS CGG (mixed) RNA 1: CACCCGUGCAAAAUUGCAGGGGUCUAAAACCUUCUCCAAAUUGUUUCAUCCU RNA 2: GGGAAUGGAUCCACAUCUACGAAUUCGUAAGGAUGAAACAAUUUGGAGAAGCGGAGAUCGGAAGAGCACACGU | 6.9 ± 0.4 nM
target 2 MT 5'PFS UGC 3'PFS AUC (mixed) RNA 1: CACCCGUGCAAAAUUGCAGGGGUCUAAAACCUUCUCCAAAUUGUUUCAUCCU RNA 2: GGGAAUGGAUCCACAUCUACGAAUUCUGCAGGAUGAAACAAUUUGGAGAAGAUCAGAUCGGAAGAGCACACGU | 33 ± 7 nM
target 1 insA 3' of 21,insC 3' of 8 (mixed) RNA 1: CACCCGUGCAAAAAUGCAGGGGUCUAAAACUGAGCGGAUAACCUCUCUAUGG RNA 2: GGGAAUGGAUCCACAUCUACGAAUUCGUACCAAUAGAGAGGUUAUCCCGCUCACCGAGAUCGGAAGAGCACACGU | 21.5 ± 1.1 nM
target 2 MT 5'PFS UGC 3'PFS AUA (mixed) RNA 1: CACCCGUGCAAAAUUGCAGGGGUCUAAAACCUUCUCCAAAUUGUUUCAUCCU RNA 2: GGGAAUGGAUCCACAUCUACGAAUUCUGCAGGAUGAAACAAUUUGGAGAAGAUAAGAUCGGAAGAGCACACGU | 28 ± 9 nM
target 2 MT 5'PFS UGC 3'PFS AUG (mixed) RNA 1: CACCCGUGCAAAAUUGCAGGGGUCUAAAACCUUCUCCAAAUUGUUUCAUCCU RNA 2: GGGAAUGGAUCCACAUCUACGAAUUCUGCAGGAUGAAACAAUUUGGAGAAGAUGAGAUCGGAAGAGCACACGU | 28 ± 6 nM
